In patent US20230277625A1:

T1: Human IL-18Rα ectodomain (amino acids 19-329), biotinylated (human), Q13478
T1 chain: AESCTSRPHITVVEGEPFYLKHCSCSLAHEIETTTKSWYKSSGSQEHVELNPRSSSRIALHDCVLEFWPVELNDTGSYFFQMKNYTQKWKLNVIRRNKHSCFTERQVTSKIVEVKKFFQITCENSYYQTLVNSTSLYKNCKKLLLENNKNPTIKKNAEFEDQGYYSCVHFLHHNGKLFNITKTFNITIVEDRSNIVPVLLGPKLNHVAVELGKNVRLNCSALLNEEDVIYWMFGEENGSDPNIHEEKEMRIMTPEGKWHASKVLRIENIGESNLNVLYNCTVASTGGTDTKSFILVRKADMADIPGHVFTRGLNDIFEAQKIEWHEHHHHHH


Target: T1, Human IL-18Rα ectodomain (amino acids …)
Assay: on-yeast binding isotherm (flow cytometry), drawn summary table, IL18Rα (KD)
Conditions: remark: other sources report otherwise

Row | Kd [µM] | Binder
1 | 9.7 | SEQ ID NO: 125 (human D2D IL-18 consensus hD2D-CS3), Q14116 37-193 (ligand, here or on the partner: biotin on the AviTag (BirA ligase)) YFGKLESKLSVIRNLNGQVLFIDQGNRPLFADMESSDCRDNAPRTIFIISFYKDSQPRGLAVTISVKCEKISTLSCENKIISFKEMNPPDNIKDTKSDIIFFLRSVPGHDNKMQFESSSYEGYFLACEKERDLFKLILKKEDELGDRSIMFTVQNED
2 | 0.43 | SEQ ID NO: 123 (human D2D IL-18 consensus hD2D-CS1), Q14116 37-193 (ligand, here or on the partner: biotin on the AviTag (BirA ligase)) YFGKLESKLSVIRNLNGQVLFIDQGNRPLFADMTDSDCRDNAPRTIFIISMYKDSQPRGMAVTISVKCEKISTLSCENKIISFKEMNPPDNIKDTKSDIIFFLRSVPGHDNKMQFESSSYEGYFLACEKERDLFKLILKKEDELGDRSIMFTVQNED
3 | 21 | SEQ ID NO: 124 (human D2D IL-18 consensus hD2D-CS2), Q14116 37-193 (ligand, here or on the partner: biotin on the AviTag (BirA ligase)) YFGKLESKLSVIRNLNGQVLFIDQGNRPLFADMTSSDCRDNAPRTIFIISFYKDSQPRGMAVTISVKCEKISTLSCENKIISFKEMNPPDNIKDTKSDIIFFLRSVPGHDNKMQFESSSYEGYFLACEKERDLFKLILKKEDELGDRSIMFTVQNED
